The assay concerns the target human GALV receptor protein (gibbon ape leukemia virus receptor) (human).

Values joined by “and” are separate entries in the source; they are usually repeats but may differ in a detail not shown here. Equal values may be shown once.

gibbon ape leukemia virus: the Foci/3 × 10^4 Cells (PG4 indicator cells) after exposure to GALV (foci/3 × 10^4 cells) is 382 and 1000.

These data come from patent publication US5414076.
